Primed or numbered codes have the meaning given here. No end group written: not given here. fluorescein″ = fluorescein (FAM) label on the N-terminus (fluorescent label)
B1: RARA/RXRA heterodimer (ligand-binding domains) (complex)
chain 1: SESYTLTPEVGELIEKVRKAHQETFPALCQLGKYTTNNSSEQRVSLDIDLWDKFSELSTKCIIKTVEFAKQLPGFTTLTIADQITLLKAACLDILILRICTRYTPEQDTMTFSDGLTLNRTQMHNAGFGPLTDLVFAFANQLLPLEMDDAETGLLSAICLICGDRQDLEQPDRVDMLQEPLLEALKVYVRKRRPSRPHMFPKMLMKITDLRSISAKGAERVITLKMEIPGSMPPLIQEMLENSEGLD
chain 2: SSANEDMPVERILEAELAVEPKTETYVEANMGLNPSSPNDPVTNICQAADKQLFTLVEWAKRIPHFSELPLDDQVILLRAGWNELLIASFSHRSIAVKDGILLATGLHVHRNSAHSAGVGAIFDRVLTELVSKMRDMQMDKTELGCLRAIVLFNPDSKGLSNPAEVEALREKVYASLEAYCKHKYPEQPGRFAKLLLRLPALRSIGLKCLEHLFFFKLIGDTPIDTFLMEMLEAPHQMT
notes: LBD constructs are stated for the negative stain EM; also called RARA/RXRA^LBD; RARA/RXRA LBD heterodimer; source: E. coli BL21-CodonPlus(DE3)-RIL, purified (HisTrap, SEC); not shown: His6, N-terminal, kept

Assays:
[1] = biological target: T1, Full-length human FLAG-UBR5 (human, UniProt O95071 1-2799); experiment: pull-down; FLAG-UBR5 (15 pmol) immobilised on FLAG M2 beads, 150 pmol nuclear receptor protein added with 50 μM agonist ligand (ATRA, 9-cis RA, both, estradiol or calcitriol); 25 mM HEPES pH 7.4, 125 mM NaCl, 0.05% TWEEN-20; 4°C; eluted with 3xFLAG peptide, western blot; details: both partners purified
T1 construct: UBR5 (ubiquitin protein ligase E3 component n-recognin 5), human, full length; Tetramer by SEC-MALS and cryo-EM; also called ubiquitin protein ligase E3 component n-recognin 5; UBR5 tetramer, WT; source: HEK293F (Expi293 system), transient expression, purified (FLAG M2, Mono Q, Superose 6); not shown: FLAG, N-terminal, kept

[2] = biological target: B1; experiment: fluorescence polarisation; competitive reverse titration: tracer Flc-NCOA1 peptide 10 nM and RARA/RXRA 0.5 μM, unlabeled competitor peptides 0–85 μM; 20 mM HEPES pH 7.4, 110 mM NaCl, 500 μM TCEP, 1% glycerol, 0.1% pluronic acid, with or without 100 μM all-trans-retinoic acid; room temperature; details: both partners purified

T1 sequence (O95071 whole entry): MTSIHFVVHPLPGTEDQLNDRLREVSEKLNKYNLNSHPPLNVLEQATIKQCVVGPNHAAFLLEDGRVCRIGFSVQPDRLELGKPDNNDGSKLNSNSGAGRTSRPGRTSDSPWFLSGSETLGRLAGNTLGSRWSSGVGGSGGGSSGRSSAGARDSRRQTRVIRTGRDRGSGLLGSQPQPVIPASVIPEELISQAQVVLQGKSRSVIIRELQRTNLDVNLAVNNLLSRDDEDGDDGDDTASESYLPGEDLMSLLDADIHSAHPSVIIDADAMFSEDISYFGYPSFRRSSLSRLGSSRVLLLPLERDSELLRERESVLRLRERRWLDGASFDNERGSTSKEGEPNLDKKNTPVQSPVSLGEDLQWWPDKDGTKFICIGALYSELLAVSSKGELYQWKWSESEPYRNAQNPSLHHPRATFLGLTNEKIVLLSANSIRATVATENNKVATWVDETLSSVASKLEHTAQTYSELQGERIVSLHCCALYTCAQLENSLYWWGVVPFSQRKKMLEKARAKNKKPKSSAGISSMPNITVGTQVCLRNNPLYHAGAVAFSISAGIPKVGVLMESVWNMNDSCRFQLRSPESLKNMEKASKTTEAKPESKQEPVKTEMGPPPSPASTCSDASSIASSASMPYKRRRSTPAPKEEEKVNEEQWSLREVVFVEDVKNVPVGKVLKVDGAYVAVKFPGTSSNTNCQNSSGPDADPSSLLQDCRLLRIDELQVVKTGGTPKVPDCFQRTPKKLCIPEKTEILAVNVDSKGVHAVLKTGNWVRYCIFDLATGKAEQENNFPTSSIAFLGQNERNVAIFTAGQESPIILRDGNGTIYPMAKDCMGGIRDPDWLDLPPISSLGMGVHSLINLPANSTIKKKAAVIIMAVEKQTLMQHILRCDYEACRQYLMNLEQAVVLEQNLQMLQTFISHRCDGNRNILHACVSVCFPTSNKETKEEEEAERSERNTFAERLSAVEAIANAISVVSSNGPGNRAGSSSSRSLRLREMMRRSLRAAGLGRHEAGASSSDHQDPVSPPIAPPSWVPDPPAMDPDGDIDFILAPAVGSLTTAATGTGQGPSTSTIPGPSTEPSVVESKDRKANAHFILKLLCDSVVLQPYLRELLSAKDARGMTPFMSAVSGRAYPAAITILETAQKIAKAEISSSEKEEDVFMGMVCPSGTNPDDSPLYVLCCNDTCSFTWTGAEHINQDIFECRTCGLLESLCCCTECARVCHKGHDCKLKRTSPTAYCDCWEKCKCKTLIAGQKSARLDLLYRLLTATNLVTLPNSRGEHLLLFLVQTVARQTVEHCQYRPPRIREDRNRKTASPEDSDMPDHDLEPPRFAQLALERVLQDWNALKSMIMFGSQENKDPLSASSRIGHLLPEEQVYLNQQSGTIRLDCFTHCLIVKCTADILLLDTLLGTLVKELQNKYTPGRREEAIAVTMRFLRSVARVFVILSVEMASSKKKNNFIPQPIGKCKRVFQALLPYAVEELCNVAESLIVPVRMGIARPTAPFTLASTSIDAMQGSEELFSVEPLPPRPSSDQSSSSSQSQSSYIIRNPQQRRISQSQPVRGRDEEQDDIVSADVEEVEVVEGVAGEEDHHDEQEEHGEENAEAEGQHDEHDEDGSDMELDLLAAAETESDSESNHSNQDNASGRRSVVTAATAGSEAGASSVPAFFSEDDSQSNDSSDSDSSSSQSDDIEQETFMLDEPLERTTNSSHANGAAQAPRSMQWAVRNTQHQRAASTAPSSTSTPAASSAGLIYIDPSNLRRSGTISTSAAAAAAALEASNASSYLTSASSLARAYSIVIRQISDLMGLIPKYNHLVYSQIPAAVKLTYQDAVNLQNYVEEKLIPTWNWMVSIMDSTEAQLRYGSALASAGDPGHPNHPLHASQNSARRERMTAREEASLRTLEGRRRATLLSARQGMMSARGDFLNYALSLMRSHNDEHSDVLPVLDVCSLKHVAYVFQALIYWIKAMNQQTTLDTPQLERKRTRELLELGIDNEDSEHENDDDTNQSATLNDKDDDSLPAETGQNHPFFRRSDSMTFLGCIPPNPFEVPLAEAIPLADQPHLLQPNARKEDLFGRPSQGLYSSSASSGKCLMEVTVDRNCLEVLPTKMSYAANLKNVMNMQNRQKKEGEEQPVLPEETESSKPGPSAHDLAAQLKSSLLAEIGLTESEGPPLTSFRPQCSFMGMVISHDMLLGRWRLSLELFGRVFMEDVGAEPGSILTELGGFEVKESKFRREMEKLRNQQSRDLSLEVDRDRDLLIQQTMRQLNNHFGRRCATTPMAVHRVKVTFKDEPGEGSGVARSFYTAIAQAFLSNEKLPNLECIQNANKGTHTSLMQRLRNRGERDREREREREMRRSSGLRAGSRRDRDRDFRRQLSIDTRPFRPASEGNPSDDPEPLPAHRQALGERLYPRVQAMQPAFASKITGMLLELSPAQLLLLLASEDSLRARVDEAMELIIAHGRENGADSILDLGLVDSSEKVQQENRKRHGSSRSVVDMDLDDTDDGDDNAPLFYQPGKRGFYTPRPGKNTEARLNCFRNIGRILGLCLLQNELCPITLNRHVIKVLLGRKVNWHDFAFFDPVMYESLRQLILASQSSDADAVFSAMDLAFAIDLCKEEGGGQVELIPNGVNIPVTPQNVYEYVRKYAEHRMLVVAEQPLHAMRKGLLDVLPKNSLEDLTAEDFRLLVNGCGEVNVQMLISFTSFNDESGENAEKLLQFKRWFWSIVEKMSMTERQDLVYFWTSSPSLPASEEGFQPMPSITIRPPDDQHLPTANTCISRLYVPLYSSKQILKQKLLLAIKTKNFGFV

| Binder | binding result [1] | binding result [2] |
| --- | --- | --- |
| His-tagged RARA ligand-binding domain (aa175-421) (domain or fragment, UniProt P10276 175-421, looked up, no cleavage of the His6-Smt3 fusion is described, and the protein is called His-tagged in the pull-downs, so Smt3 was probably still on; also called His-RARA; RARA LBD; source: E. coli BL21-CodonPlus(DE3)-RIL, purified (HisTrap, SEC); not shown: His6, N-terminal, kept) SESYTLTPEVGELIEKVRKAHQETFPALCQLGKYTTNNSSEQRVSLDIDLWDKFSELSTKCIIKTVEFAKQLPGFTTLTIADQITLLKAACLDILILRICTRYTPEQDTMTFSDGLTLNRTQMHNAGFGPLTDLVFAFANQLLPLEMDDAETGLLSAICLICGDRQDLEQPDRVDMLQEPLLEALKVYVRKRRPSRPHMFPKMLMKITDLRSISAKGAERVITLKMEIPGSMPPLIQEMLENSEGLD | binds | – |
| {fluorescein″}-ARHKILHRLLQEGS (NCOA1 LxxLL peptide, printed as residues 687-698; also called Fluorescein NCOA1 peptide aa687-698; source: synthetic peptide; bought: Peptides & Elephants) [Fluorescein-labelled NCOA1 peptide residues 687–698 (Flc-ARHKILHRLLQEGS)] | – | binds |
| B1 | binds | – |
| VDR aa118-427 (recombinant) (domain or fragment, UniProt P11473 118-427, looked up, also called vitamin D receptor; source: E. coli BL21-CodonPlus(DE3)-RIL, purified (HisTrap, SEC)) DSLRPKLSEEQQRIIAILLDAHHKTYDPTYSDFCQFRPPVRVNDGGGSHPSRPNSRHTPSFSGDSSSSCSDHCITSSDMMDSSSFSNLDLSEEDSDDPSVTLELSQLSMLPHLADLVSYSIQKVIGFAKMIPGFRDLTSEDQIVLLKSSAIEVIMLRSNESFTMDDMSWTCGNQDYKYRVSDVTKAGHSLELIEPLIKFQVGLKKLNLHEEEHVLLMAICIVSPDRPGVQDAALIEAIQDRLSNTLQTYIRCRHPPPGSHLLYAKMIQKLADLRSLNEEHSKQYRCLSFQPECSMKLTPLVLEVFGNEIS | binds | – |
| His-tagged ER ligand-binding domain (aa301-552) (domain or fragment, UniProt P03372 301-552, looked up, also called estrogen receptor; source: E. coli BL21-CodonPlus(DE3)-RIL, purified (HisTrap, SEC); not shown: His6, N-terminal, kept) SKKNSLALSLTADQMVSALLDAEPPILYSEYDPTRPFSEASMMGLLTNLADRELVHMINWAKRVPGFVDLTLHDQVHLLECAWLEILMIGLVWRSMEHPGKLLFAPNLLLDRNQGKCVEGMVEIFDMLLATSSRFRMMNLQGEEFVCLKSIILLNSGVYTFLSSTLKSLEEKDHIHRVLDKITDTLIHLMAKAGLTLQQQHQRLAQLLLILSHIRHMSNKGMEHLYSMKCKNVVPLYDLLLEMLDAHRLHAP | binds | – |
